Here are results for 2 molecules from patent US20210246206A1 (Stanford University, published 2021).

The test concerns the target T1, purified human CD47-Fc fusion protein (human, UniProt Q08722 19-139, limits assumed).
T1 construct: Coated on ELISA plates at 1.0 ug/ml; also called soluble CD47; human CD47 soluble protein; not shown: Fc part
In words: ELISA on coated human CD47 soluble protein (FIG. 11). A general note: An ELISA detects its analyte on a solid surface through an enzyme-linked reagent.

T1 sequence (Q08722 19-139 limits assumed): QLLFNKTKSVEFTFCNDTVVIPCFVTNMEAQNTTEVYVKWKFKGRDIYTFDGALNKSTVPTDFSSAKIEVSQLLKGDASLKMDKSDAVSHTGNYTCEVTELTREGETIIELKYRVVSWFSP

B1: chimeric 8B6 antibody (antibody, V domains shown)
VH: EVQLQQSGPELVKPGASVKMSCKASGYTFTTYVVHWVKQTPGQGLEWIGYINPYNDGTKYNEKFKGKATLTSDKSSSTAYMEFSSLTSEDSAVYYCVRGYYRYGYTMDYWGQGTSVTVSS
VL: DIVMTQSPATLSVTPGDRVSLSCRASQNFSDYLHWYQQKSHESPRLLIKYVSHSISGIPSRFSGSGSGSDFTLSINSVEPEDVGVYYCQNGHSFPPTFGGGTKLEIK
notes: Mouse 8B6 variable regions in a chimeric native IgG; detection was with anti-human kappa
On to B1, for which the binding result is “binds”.

B2: chimeric 5F9 antibody (antibody, V domains shown)
VH: QVQLQQPGAELVKPGASVMMSCKASGYTFTNYNMHWVKQTPGQGLEWIGTIYPGNDDTSYNQKFKDKATLTADKSSSAAYMQLSSLTSEDSAVYYCARGGYRAMDYWGQGTSVTVSS
VL: DVLMTQTPLSLPVSLGDQASISCRSSQSIVYSNGNTYLGWYLQKPGQSPKLLIYKVSNRFSGVPDRFSGSGSGTDFTLKISRVEAEDLGVYHCFQGSHVPYTFGGGTKVEIK
notes: Mouse 5F9 variable regions in a chimeric native IgG; detection was with anti-human kappa
On to B2, for which the binding result is given as “binds”.
